Data: the RNAGym collection of RNA variant scans (doi:10.1101/gr.219683.116)

B1: mRNA-splicing (parent)
chain: AGUUGCUGCUGGGAGCUCCAGCACAGUGAAAUGGACAGAAGGGCAGAGCAA

Variants of: B1
Experiment: exon inclusion enrichment index; higher = more inclusion; WT1 exon 5 minigene, HEK293

| Variant | exon inclusion enrichment index |
| --- | --- |
| G5C C6U G8C C9U U10C G42U G43C | 1.23 |
| C6A U7C C9A U10C C36U A37C | 2.39 |
| G5A U7C G8A U10C C44G A45C | 3.34 |
| G5A C6G U7G C9A C22A A23U | 0.00131 |
| G5A C6U U7A G8A C9A | 0.0655 |
| G5C C6U G8C C9U U10C A47G G48A | 1.24 |
| G5C C6A U7C G8A U10A C22A A23C | 0.364 |
| G5C C6A U7C G8C C9A U10A | 0.741 |
| C6A U7A C9A U10A A35G C36A | 0.281 |
| G5A C6G U7G C9A A30U A31G | 0.000854 |
| G5A C6G U7G C9A A30U A31U | 0.00264 |
| G5A U7C G8A U10C G38U A39C | 1.83 |
| G5A C6G U7G C9U | 0.00241 |
| G5A C6U U7A G8U C9A A31G U32G | 0.0411 |
| G5C C6U G8C C9U U10C A25C G26U | 2.7 |
| C6A U7C C9A U10C C36A | 2.48 |
| G5C C6U G8C C9U U10C G43A | 3.52 |
| G5C C6G U7C U10C G41C G42C | 4.35 |
| G5A C6G U7G C9A A25U | 0.00086 |
| G5A C6U U7A G8U C9A A37G G38A | 0.0869 |
| G5A C6G U7G C9A G43U C44G | 0.000892 |

| Variant | exon inclusion enrichment index |
| --- | --- |
| G5A C6G U7G C9A U27C | 0.00674 |
| G5A C6G U7G C9A U27A | 0.00261 |
| G5A U7C G8A U10C C19G A20C | 2.4 |
| G5U G8U C9U C22A A23U | 0.0576 |
| G5A C6G U7G C9A G41U G42C | 0.00698 |
| G5U G8U C9U A23U C24A | 0.0491 |
| G5A C6G U7G C9A G15U C16U | 0.000743 |
| G5A C6G U7G C9A G13C A14G | 0.00374 |
| G5A C6G U7G C9A G26C U27C | 0.0114 |
| G5C C6U G8C C9U U10C G46A A47C | 2.56 |
| G5C C6A U7C G8A U10A G33A G34C | 0.0321 |
| G5A C6U U7A G8U C9A G34C | 0.0129 |
| U3C U4A C6A U7C C9A U10C | 2.21 |
| G5C C6U G8C C9U U10C A20C G21A | 0.599 |
| C6A U7C C9A U10C A30G A31C | 0.677 |
| G5C C6A U7C G8A U10A A47C G48U | 0.0993 |
| G5C C6U G8C C9U U10C A35C C36U | 0.258 |
| G5C C6U G8C C9U U10C A47U G48A | 1.58 |
| G5C C6G U7G G8A U10A | 0.218 |
| G5C C6G U7C U10C A30C A31G | 4.15 |
| G5C C6G U7C U10C G33A G34C | 0.988 |

| Variant | exon inclusion enrichment index |
| --- | --- |
| G5A C6U U7A G8U C9A C44G A45C | 0.138 |
| G5C C6U G8C C9U U10C A47C G48U | 1.77 |
| G5C C6A U7C G8A U10A A29C | 0.0911 |
| G5U G8U C9U A31G U32G | 0.0767 |
| G5C C6A U7C G8A G11C | 1.01 |
| U17C | 0.0839 |
| U32A G33C | 0.181 |
| C6A U7C C9A U10C G43A C44U | 3.22 |
| G5U G8U C9U A30U A31G | 0.15 |
| C16A U17C | 0.0503 |
| C6A U7A G8C C9G U10A | 0.781 |
| C6A U7A C9G U10C | 1.05 |
| U3A U4C G5C C6G U7C U10C | 3.45 |
| C6A U7C C9A U10C A30G | 3.61 |
| G5C C6A U7C G8A U10A C44A A45G | 0.213 |
| G5C C6A U7C G8A U10A C44A A45C | 0.385 |
| G5C U7A G8A U10A | 0.0423 |
| U27G G28U | 0.00139 |
| C6A U7C G8A C9A U10C | 2.62 |
| G41U G42U | 0.192 |
| G5A C6U U7A G8C C9U | 0.218 |

| Variant | exon inclusion enrichment index |
| --- | --- |
| G5C C6A U7C G8A U10A G33C G34U | 0.0659 |
| G5A U7C G8A U10C A30C A31G | 3.4 |
| G5A C6U U7A G8U C9A A20U | 0.0779 |
| G5A C6G U7G C9A G43C C44U | 0.000823 |
| G5A C6U U7A G8U C9A C18U C19G | 0.0036 |
| G5A U7C G8A U10C G28A A29U | 0.513 |
| G5U G8U C9U G43U C44U | 0.0283 |
| U4C G5U C6G U7G C9A | 0.461 |
| G5A C6G U7G C9A A30C A31C | 0.00182 |
| G5C C6G U7C U10C G11A G12A | 1.91 |
| C6U U7C G8A U10A | 0.155 |
| G5C C6A U7C G8A U10A A30U A31G | 0.105 |
| G5C C6A U7C G8C C9U U10A | 0.107 |
| C6A U7C C9A U10C A20G | 3.85 |
| U4A G5C C6G U7C U10C | 2.75 |
| G5C C6G U7C U10C A23G C24U | 1.96 |
| C6U G8C C9U U10C | 1.11 |
| G5C C6U G8C C9U U10C A29C A30C | 2.52 |
| G5A U7C G8A U10C A31C | 2.89 |
| G5A C6U U7A G8U C9A G42A G43A | 1.16 |
| G5A U7C G8A U10C A14C G15C | 0.761 |
